Reference: PMC6364316 (Vaccine, 2018)

Columns and labels:
[1] = target: T1, gp120 (HIV-1, strain  for this …, UniProt Q75760); assay: SPR
[2] = target: T1, gp120; assay: ELISA

B1: IgG b12 (antibody, V domains shown)
VH: QVQLVQSGAEVKKPGASVKVSCQASGYRFSNFVIHWVRQAPGQRFEWMGWINPYNGNKEFSAKFQDRVTFTADTSANTAYMELRSLRSADTAVYYCARVGPYSWDDSPQDNYYMDVWGKGTTVIVSS
VL: EIVLTQSPGTLSLSPGERATFSCRSSHSIRSRRVAWYQHKPGQAPRLVIHGVSNRASGISDRFSGSGSGTDFTLTITRVEPEDFALYYCQVYGASSYTFGQGTKLERK
In the case of B1, the Kd [1] is reported as 36 ± 2 nM, the koff [1] is reported as 0.0052 s⁻¹ and the “10 times EC50” value [2] is reported as 1 µg/mL.
